T1: rmCD3δε-Fc (CD3 delta/CD3 epsilon heterodimer) (mouse, UniProt P04235;P22646 22-105;22-108)
T1 sequence 1: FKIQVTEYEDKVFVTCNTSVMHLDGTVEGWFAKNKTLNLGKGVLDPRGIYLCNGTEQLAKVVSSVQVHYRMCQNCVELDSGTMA
T1 sequence 2: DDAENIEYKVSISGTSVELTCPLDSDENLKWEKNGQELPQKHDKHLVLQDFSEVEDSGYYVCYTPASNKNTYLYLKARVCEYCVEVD

B1: CD3 Apt12 monomer (XNA)
RNA: GGGAGAGAAGGAUAGGGUCCCCUGUCGAUAUCCACCGUCUGGCCCGCAUUGAUUCCUUAUACCUCCUUUCCC
modifications: 2'-fluoro pyrimidines
B2: CD3 Apt1 monomer (XNA)
RNA: GGGAGAGAAGGAUAGGGCCCCGAUUGAUUCGCAAUGUGCGUCCCCUCGUGCCUUCCUUAUACCUCCUUUCCC
modifications: 2'-fluoro pyrimidines
B3: CD3 Apt3 monomer (XNA)
RNA: GGGAGAGAAGGAUAGGGUCCCUACCUGAAACUCGAAGAUGAGCCCUGUCUGAUUCCUUAUACCUCCUUUCCC
modifications: 2'-fluoro pyrimidines
B4: CD3 Apt5 monomer (XNA)
RNA: GGGAGAGAAGGAUAGGGCCUUGCCUGCUUUCACGUGUGAUCCCUGCCCGUUUCCUUAUACCUCCUUUCCC
modifications: 2'-fluoro pyrimidines

Target: T1, rmCD3δε-Fc (CD3 delta/CD3 epsilon …)
Experiment: filter binding

Binder | binding result
B1 | binds
B2 | binds
B3 | binds
B4 | binds
